Source: paper PMC10766600, “Antigen self-anchoring onto bacteriophage T5 capsid-like particles for vaccine design” (NPJ Vaccines, 2024)

Target: T1, decoration protein pb10 of bacteriophage T5, full length (bacteriophage T5, UniProt Q6QGD6 1-164)
T1 construct: Cloned in pET28b; also called native pb10; unmodified pb10; source: E. coli BL21 (DE3), purified (HisTrap FF, HiTrap SP, Superdex 75)
T1 sequence (looked up): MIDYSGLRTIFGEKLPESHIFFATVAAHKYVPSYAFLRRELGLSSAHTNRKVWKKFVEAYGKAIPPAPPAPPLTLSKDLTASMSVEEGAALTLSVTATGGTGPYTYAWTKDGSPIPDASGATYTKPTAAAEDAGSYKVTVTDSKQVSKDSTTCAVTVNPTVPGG
Assay: SPR; T5 CLPs captured on a CM5 chip through covalently coupled rabbit polyclonal anti-capsid antibodies (about 900 RU); pb10 or chimeras injected at 0.25-4 nM for 200 s at 50 µL/min; 25 °C; PBS with 0.05% Tween 20 and 1 mg/mL BSA; simple Langmuir model
Settings: both partners purified

B1: bacteriophage T5 capsid-like particles (T5 CLPs) (complex)
chain: AVNQSSSVEVSSESYETIFSQRIIRDLQKELVVGALFEELPMSSKILTMLVEPDAGKATWVAASTYGTDTTTGEEVKGALKEIHFSTYKLAAKSFITDETEEDAIFSLLPLLRKRLIEAHAVSIEEAFMTGDGSGKPKGLLTLASEDSAKVVTEAKADGSVLVTAKTISKLRRKLGRHGLKLSKLVLIVSMDAYYDLLEDEEWQDVAQVGNDSVKLQGQVGRIYGLPVVVSEYFPAKANSAEFAVIVYKDNFVMPRQRAVTVERERQAGKQRDAYYVTQRVNLQRYFANGVVSGTYAAS
modifications: DNA-free expanded capsid lacking pb10 (T5 dec deletion, stAmN5). Mature pb8 after removal of the scaffolding domain; limits from the UniProt chain feature, matching the 299 aa entity of PDB 6OMC/6OMA.
  Kd: 1.5 to 2.3 pM
